# Measurements published in US20240261333A1, “NOVEL TARGETS FOR ENHANCING ANTI-TUMOR IMMUNITY” (THE BROAD INSTITUTE, INC., priority 2021, published 2024).
# Target: T1, B3GNT2 (Homo sapiens, UniProt Q9NY97)
# T1 construct: The respective ORFs of candidate genes [CD274 (NM_014143), MCL1 (NM_021960), JUNB (NM_002229), and B3GNT2 (NM_006577)] were synthesized; expressed in transfected cells; host or cells: A375 melanoma cells (lentiviral ORF overexpression)
# T1 sequence (Q9NY97 1-397): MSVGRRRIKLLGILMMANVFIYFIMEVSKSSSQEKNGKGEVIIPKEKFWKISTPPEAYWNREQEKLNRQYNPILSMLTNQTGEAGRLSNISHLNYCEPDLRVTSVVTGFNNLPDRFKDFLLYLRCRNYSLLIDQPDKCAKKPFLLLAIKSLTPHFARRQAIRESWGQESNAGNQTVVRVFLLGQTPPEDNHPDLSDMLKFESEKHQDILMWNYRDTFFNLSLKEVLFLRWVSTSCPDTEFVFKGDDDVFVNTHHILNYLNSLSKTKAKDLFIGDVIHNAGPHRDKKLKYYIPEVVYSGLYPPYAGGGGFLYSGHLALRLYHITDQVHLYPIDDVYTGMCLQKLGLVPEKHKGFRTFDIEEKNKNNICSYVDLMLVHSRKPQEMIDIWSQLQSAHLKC
# Assay: Co-IP of FLAG-tagged B3GNT2 followed by mass spectrometry
# Assay type: cell-based
# Set-up: C-term IgG / C-term flag: unit not given here
# Description: Cells were plated in 10-cm cell culture dishes and grown to 60-80% confluency. For each condition, two biological replicates were harvested for co-IP. Cells were washed with PBS and 4 mL of lysis buffer (20 mM HEPES, 1% Triton X-100, 150 mM NaCl, 1 mM EDTA, and 10% glycerol) containing protease inhibitor cocktail was added. Cells were scraped and lysate was incubated at 4° C. under rotary agitation for 1 h. Lysate was centrifuged at 14,000×g for 10 min at 4° C. Supernatant was transferred to a new tube and an aliquot was taken as the input. […] For Western blots, 10 μg/mL Chicken Anti-FLAG (Aves labs ET-DY100) and IgY control (R&D Systems AB-101-C) antibodies were biotinylated (Thermo Fisher Scientific 90407) and added to the respective conditions. Lysates with antibodies were incubated at 4° C. under rotary agitation overnight. For each mL of lysate, 50 μL of Pierce Protein A/G Magnetic Beads (Mass spectrometry; Thermo Fisher Scientific 88803) or Pierce Streptavidin Magnetic Beads (Western blot; Thermo Fisher Scientific 88817) was washed twice with lysis buffer. Lysates with antibodies were added to the beads and incubated at 4° C. under rotary agitation for 4 h. Beads were washed with lysis buffer 3 times and resuspended in lysis buffer for storage. […] This solution was subjected to solid phase extraction to concentrate the peptides and remove unwanted reagents followed by injection onto a Shimadzu HPLC with fraction collector. Eight fractions were collected and after concentration were injected on a Waters NanoAcquity HPLC equipped with a self-packed Aeris 3 μm C18 analytical column 0.075 mm by 20 cm, (Phenomenex). Peptides were eluted using standard reverse-phase gradients. The effluent from the column was analyzed using a Thermo Orbitrap Elite mass spectrometer (nanospray configuration) operated in a data dependent manner for 54 minutes. […] Scaffold Q+S (Proteome Software) was used to provide consensus reports for the identified proteins.
# [1] = Co-IP followed by mass spectrometry of B3GNT2, C-term tag, FLAG pull-down
# [2] = Co-IP followed by mass spectrometry of B3GNT2, C-term tag, IgG pull-down
# [3] = Co-IP followed by mass spectrometry of B3GNT2, N-term tag, FLAG pull-down
# [4] = Co-IP followed by mass spectrometry of B3GNT2, N-term tag, IgG pull-down
# [5] = Co-IP with FLAG antibody, C-terminally FLAG-tagged B3GNT2, mass spectrometry count, unit not given
# [6] = Co-IP with FLAG antibody, N-terminally FLAG-tagged B3GNT2, mass spectrometry count, unit not given
# [7] = Co-IP with IgG control antibody, C-terminally FLAG-tagged B3GNT2, mass spectrometry count, unit not given
# [8] = Co-IP with IgG control antibody, N-terminally FLAG-tagged B3GNT2, mass spectrometry count, unit not given
Substance,C-term flag [1],C-term IgG [2],N-term FLAG [3],N-term IgG [4],C-term flag [5],N-term FLAG [6],C-term IgG [7],N-term IgG [8]
PABPC1,41,30,31,37,,,,
SUPT16H,3,0,0,0,,,,
HBA1,,,,,4,3,0,3
PSMC4,,,,,0,3,0,0
SEL1L,,,,,5,3,0,0
SLC27A4,,,,,2,0,0,0
PIGR,,,,,5,2,0,0
TUBB4B,,,,,119,161,13,0
MAP1B,,,,,2,0,0,0
HERC2,,,,,3,0,0,0
EMD,2,2,2,0,,,,
PRBP1,9,6,6,7,,,,
PCBP1,,,,,4,4,3,0
EIF4G1,6,2,2,2,,,,
HSP90AB1,,,,,11,10,2,0
HNRNPA2B1,8,9,7,4,,,,
ERLIN2,,,,,9,8,0,0
LARP4,,,,,2,0,0,0
HUWE1,0,0,3,0,,,,
RPL28,16,3,8,3,,,,

# Other lines, results leading:
C-term flag [1],C-term IgG [2],N-term FLAG [3],N-term IgG [4],C-term flag [5],N-term FLAG [6],C-term IgG [7],N-term IgG [8],Substance
,,,,4,5,2,2,ENO1
,,,,12,2,0,0,CSPG4
2,0,4,0,,,,,PCMT1
10,4,5,10,,,,,TAF15
,,,,82,115,0,0,TUBB3
,,,,11,24,0,0,PRKDC
0,0,4,0,,,,,HBB
12,0,0,2,,,,,HNRNPU
,,,,0,2,0,0,SEC16A
,,,,2,0,0,0,HADHA
,,,,0,2,0,0,ERP29
,,,,9,0,0,0,TECR
7,5,2,3,,,,,MYH11
,,,,2,0,0,0,LAMB1
4,0,3,4,,,,,HSPB1
4,3,7,4,,,,,LGALS7B
,,,,3,0,0,0,MON2
49,15,41,16,,,,,HSPA8
4,0,0,0,,,,,LAMC1
3,0,0,0,,,,,TFAM
,,,,6,3,0,4,LYZ
,,,,8,6,0,2,FABP5
12,10,9,8,,,,,HNRNPK
9,3,4,5,,,,,SRSF1
